Results as given in the DeepSol protein solubility set.

Assay: soluble on expression in E. coli; label from the status in PepcDB or PDB records

| Sequence | soluble on expression in E. coli |
| --- | --- |
| SLVNMNVPDMILYNGKITTLDPSQPEVSAIAITDGLITAVGGDELLNSATEKTKKIDLKRKRAIPGLNDSHIHVIRGGLHYNMELRWEGVPSITIALEMLKEQARRTPAPQWVRVVGGWSEFQFKERRMPTLEEINAVSEDTPVFVLHLYDRALVNRAGLRALGYTKDTPDPPGCLIERDKRGNPTGLLIANPNASILYSSLGKAPILNFDDQINSTRHFMRELNRLGITSAIDAGGGFQNYPDDYRVVEHLAEKEQLTLRIAYNLFTQNPNHEYEDFASWAKIVSPGQGNDKYKMNGAGEMLVFSAADFEKFQMPRPELATMMEADLKKVISLLVENRWPFRLHATYDESITRFLNVFEEVNKEIPFNGLRWWFDHAETISDRSMERVKALNGGIAIQDRMAFQGEYFVDLYGKEAAKRTPPIYRMLDLGIPVGAGSDATRVSSYNPWVALYWMVAGKTIGGLSIYDEKNKLDRKVALELYSKGSAWFSGDEGKKGTLAVGQFADIAVLSADYFTVPEEEIKDLESLLTIMGGQVVYGNDEFKNLSPELPPASPDWSPTGVYGYGGANLAHTILSHDSHDNKLHSCSNPLHQHTHTVIGKDGTKWGIGCTCFAF | soluble |
| MAESKAKNMFQKLSLTPKRNHEHDAGRNIETEEELLQKLKRLKLDNDYLHMWLSYEKLATIVENRSTDKTRKPEYGKLIFYYQGAAHALVSIWKRDSDLPFEQYISGDIARLFNKALDVAIRHMDPTVVHTIARDGGVALMSIDKPIEARDVLVRGENHLVAVPADGQLDFLERLIVLYYIMDSILIEERWNEYMVYTDKVWMMTMKEDKRCPLLENIIKEVEQVAVLLLVFQRKVECSERHKQLLASYRLDDWKAPIIKHNPPLSSLNPSEQKVFRRFLFYMMSNKRSVDKVLKHR | not soluble |
| MGQTTEAQSLKYGEREIENGELITFPNPRPGRRYTINITLPEYTCKCPFSGYPDFATIYITYVPDQKVVELKAIKLYINSYRDRYISHEEAVNQILDDLVAACDPLEMTIKGDYQPRGNVHTVIEVTHTKEQA | not soluble |
| MFLAQPRGFCAGVVRAIEIVERALEKYGPPVYVRHEIVHNKYVVESLKAKGAIFVEELSEVPPKAVTVFSAHGVARSIEEEAAARDLPVLNATCPLVTKVHNQGKRYTSKGRTLILIGHAGHPEVEGTMGQVPGPVLLVQNLDDVAALTLPPETPVAYITQTTLSVDDTKDIIVALSKKFHDIEGPDTRDICYATQNRQSAVRQMSKLVDLILVVGANNSSNSNRLREIGTEAGIPSYLIADGSELDPAWLDGKKAVGITAGASAPEVLVDDVIEALRRIVPVTVSVLPGREENIEFVLPAELATALEHHHHHH | not soluble |
| MSLGFSTYRATNYNEGTAYGNTPVILTLKSTSKSNLKTAVEELQKLNASYSNTTTLAGDDRIQTAIEISKEYYNNDGEKQDHSADVKENVKNVVLVGANALVDGLVAAPLAAEKDAPLLLTSKDKLDSSVKSEIKRVLDLKTSTEVTGKTVYLAGGVNSVSKEVVTELESMGLKVERFSGDDRYETSLKIADEIGLDNDKAYVVGGTGLADAMSIASVASTKLDGNGVVDKTNGHATPIVVVDGKADRISDDLDSFLGSADVDIIGGFASVSEKMEEAISDATGKGVTRVKGDDRQDTNSEVIKTYYANDTEGHHHHHH | soluble |
| MPLELTQSRVQKIWVPVDHRPSLPRSCGPKLTNSPTVIVMVGLPARGKTYISKKLTRYLNWIGVPTKVFNVGEYRREAVKQYSSYNFFRPDNEEAMKVRKQCALAALRDVKSYLAKEGGQIAVFDATNTTRERRHMILHFAKENDFKAFFIESVCDDPTVVASNIMEVKISSPDYKDCNSAEAMDDFMKRISCYEASYQPLDPDKCDRDLSLIKVIDVGRRFLVNRVQDHIQSRIVYYLMNIHVQPRTIYLCRHGENEHNLQGRIGGDSGLSSRGKKFASALSKFVEEQNLKDLRVWTSQLKSTIQTAEALRLPYEQWKALNEIDAGVCEELTYEEIRDTYPEEYALREQDKYYYRYPTGESYQDLVQRLEPVIMELERQENVLVICHQAVLRCLLAYFLDKSAEEMPYLKCPLHTVLKLTPVAYGCRVESIYLNVESVCTHRERSEDAKKGPNPLMRRNSVTPLASPEPTKKPRINSFEEHVASTSAALPSCLPPEVPTQLPGQNMKGSRSSADSSRKH | soluble |
| MPMSTDVQGRALAVLNRVAQADWPDRFNLRKPFEKLLYSGSRTGFRLASERSAKQAKGPRKADPDGLFDLSFSDDQQMLVDMLEGFALEVLRPLAHDADAEASLPAELLNQALELGLTHYGVGEVHGGMAGERTTVTTALIAEALAKGDLTLAAALLVPLSAANCIRRWGSPSQQAQWLPAFVSEEGAPLTAIAVNEPSLLFDPQKLATRARRKGSHYLLSGEKCLVLRGLEASRLIVAAKTDEGPALFLVEASAKGVERRAEPAMGLKAGGTARLRLKSVKVPADNRLAAEHFDYRAFLDHASLAWCALALGTGQAALDYVIAYCNEREAFGEPISHRQGVAFMVADIAIELDAMRLMVWRACALAERGQPFQREAYLARLLCAEKAMKIGTDAVQLLGGHGFT | not soluble |
| MALTEERVLEALRTVMDPELGKDLVSLGMVDEVRVEGGRVDLLVNLTTPACPLKGQIEADIRRALAPLGAEEVRVRFGGGVRPPERYALPGVKHVVAVASGKGGVGKSTVAANLALALSREGAKVGLLDADLYGPSQAKMFGLEGMRLKVDQDRRILPLEAHGIKVLSIANIVPPGQALAWRGPILHGTLKQFLQDVNWGELDYLVVDLPPGTGDVQLSLSQLTQVSGGVIVTTPQEVALIDAERAADMFRKLQVPVLGVLENMSAFLCPHCGKPTPIFGEGGGRRLAERLKTRFLGEIPLTLALRESGDRGVPVLAQDPEGLEAQAFLKAARELAAALSVQTFLPLPMA | soluble |
| MSLEEQLAQNDQPSEKLVRLYGAWAEGGAGVLVTGNVMVAESGKGSINDVLISDDRALEMLKKWAKARTQNDTLLIMQINHAGKQSPAVVNKTPLAPSAVPLVGMNGFINPPRELSADEINGLIQQFVQTAKIAEQAGFSGVQIYAVHGYLISQFLSPHHNRRQDQWGGSLENRMRFLLETYTAIRAAAGKDFLVGVKLNSADFQKGGFDESESVQVVQKLSEMGIDFIEVSGGNYESPQMLAAKDSTRKREAFFIDYAEKARAASQAPLIITGGFRSQTAMEDALSSGHLDLVGIARPFALVPDLANKMQNRTYQTVQADRIQTGVAFVDKKAGAMLEMNWYMTQMDLIGQGKQSNPKIVGVESIAENFAGKEGHHHHHH | not soluble |
| MEDNNELIKGRGAQMQAKSRFHAQEIVQEHMEGIDEITDINTPTQYLYENAKQIVNKVDSPDIGLAYSMNPYQGCEHGCIYCYARNSHEYWGYNAGIDFEKKIIVKRNAASVLAKTFEKPNWEVLPIMFSGNTDCYQPIERKLQITRNMLQVIATYKHPVGMITKNHLITRDIDILKELAAQQLVHVSISITSARDEIRQKLEPRASAISQRLKTVEALAKENIPVNVMIAPIIPGINHHEIPQIMKQIADAGASSAAYTIVRLNGSIGVVFEDWIRKAYPDRADKVLNQIKECHGGTLNDSRFSTRMRGQGNIAASIHDLFYVSRKKYLSGREYPPLRTDLFVRSNKGQLGLF | not soluble |
| ERRQGIAGVKGNQLQLMTESDDVMQALIRDIQLARHNIEMVFYIWQPGGMADQVAESLMAAARRGIHCRLMLDSAGSVAFFRSPWPELMRNAGIEVVEALKVNLMRVFLRRMDLRQHRKMIMIDNYIAYTGSMNMVDPRYFKQDAGVGQWIDLMARMEGPIATAMGIIYSCDWEIETGKRILPPPPDVNIMPFEQASGHTIHTIASGPGFPEDLIHQA | not soluble |
| MSLKRFIPAWYSRNRWWESTSRPFYLKKQYTDFDDMISLMTMHSSNNVDYQLIVLSFSPYLRTFLHRYDLYESHYWSVFDEIQGIGHQTPQAIDYRDLSWPEGTEFIFTPFQIQAITGDNTFSKIHFSQEGYLMWVEDYKYSTIQRRFVFDDRGFISAVRTYTPDGDNNKKHYFSKDGEEIFVEDLNVNTVTINKNFQSKFKKVTYSSMAELIEEKFQSYVERELNEDDSVIVASDERHNSMMARTIDAPSLCFSIFTERNKVVTQDLYDSISRAYYCLVDTQANQNMIEHYAGLNMNNFNLLRVTPFDAQSLPNQSSQLYDTYIGLWIDGLDEIEIREIVNSLFQYIQHKDGYKLKILTKSRDNLTENLIDEVAHLNDLYHQEKKEISDVIEDVIQNKKETIIDIETVPFEEDLVSVISKLRVVVDLSLEPKLFLQICCIGAGIPQINKKRTDYVKHMHNGYIIDDISQTVESLDYFLAHLKNWNYSYAYSMRLTDDFSSINIIHQINQLFKGDVSSGTEGHHHHHH | soluble |
| MRTPLSSVSPQLVQRFHELGFTPSSIRNFLGRPGFAAISRGEPASVLYAMRENEDSDFYPLIATFILHRPVAAEALHRVLGGSLTDQLTETGVLEIVDASKAYLTAKIDIRWLELEDDLFWVFSDTDASMIADHVPGKDHVLGVGAASLSL | not soluble |
| MGSSHHHHHHSSENLYFQGHMLANNNKRSKLSTVPSSRPIRVGFVGLTSGKSWVAKTHFLAIQQLSSQFQIVALYNPTLKSSLQTIEQLQLKHATGFDSLESFAQYKDIDMIVVSVKVPEHYEVVKNILEHSSQNLNLRYLYVEWALAASVQQAEELYSISQQRANLQTIICLQGRKSPYIVRAKELISEGCIGDINSIEISGNGGWYGYERPMRSPEYLYDIESGVNLISNSFGHTIDVLQYITGSYFQKINAMISNNIPTQFLLDENGKRTKETISKTCPDHLLFQGILENGKVPVSCSFKGGTPVKKLTKNLVIDIHGTKGDLKIEGDAGFVEISNLVLYFYGIKNGNGSSNGTDNNGAAAIKDKEKVTKSPSPSTGTSEEEQTMEVFHLRNYNSVVGNILRIYESIADYHFLGKPESKSSRGPDDLFASTKFDKQGFRFEGFPTFKDAIILHRLIDAVFRSDKEEKTLDVSKIMI | soluble |
| MKFFLLKKFSEFLNAQTHFSLKRLNASSFLLETFSKEKHAFVVDLSAPYIGLSKKPPESVLKNTLALDFCLNKFTRNAKILQANIIDNDRILEINGAKDLAYKSENFILRLEMIPKKANLMILDKEKCVIEAFRFNDRVAKNDILGALPPNIYEHQEEDLDFKGLLDILEKDFLFYQHKELEHKKNQIIKRLNAQKERLKEKLEKLEDPKNLQLEAKELQTQASLLLTYQHLIHKHESRVVLKDFEDKERAIEIDKSMPLNAFINKKFTLSKKKKQKSQFLYLEEENLKEKIAFKENQINYVKGAQEESVLEMFMPSKNSKIKRPMSGYEVLYYKDFKIGLGKNQKENIKLLQDARANDLWMHVRNIPGSHLIVFCQKNAPKDDVIMELAKMLIKMQKDAFNSYEIDYTQRKFVKIIKGANVIYSKYRTISLKDT | not soluble |
| MAKNTSSNAFRKIDVDQYNEDNFREDDGVESAAAGPDESEITTLLTQGKSVEALLSALQNAPLRCKNQNVKDHALNITLRVLLSIKSTQMDQAIDTLDQNDLIDVLMKYIYRGFEIPSEGSSGHLLQWHEKAFAKGGVGCIVRVLSDTNRALEHHHHHH | soluble |
| MSTDPTPPQLTRRTAKVSIDNQTGSHFKFQVTHKYTGWDADKSDVVMFQPDEVKEIFKSVAYNTGFLTTGVDNWLVDGTMVQERTEVDNKGHQIGKKSYIEHAKFISDSRSWKQHMLTAEDDGKTTTIRVFPTEIHFISPSGESTTTFTKY | not soluble |
| MKKREVIASVKDEKLVKKRRNEMIKGAISLFKQKGFHQTTTREIAKASGFSIGTLYEYIRKKEDVLYLVCDRIYDEVRERTEQDLGAHHGTIEGLRRAIAHYFRVVDELDDEVLVMYQEVKALSKESLPYVLNKELDMAAIFEHILRACVENGALQLSESEIRLFAHNIVVLGQMWAFRRWVLRKMYTLDEYIELQTEFLLKGIMEKQRV | not soluble |
| NGGIPHDNLVLIRMKPDENGRFGFNVKGGYDQKMPVIVSRVAPGTPADLCVPRLNEGDQVVLINGRDIAEHTHDQVVLFIKASCERHSGELMLLVRPNAVYDVVEE | soluble |
| MEVFGKSPMVVTSANVIYLSAILGRDCDGHKCDWKCENENVCGNMYRCKLTGLTHVCDKNCNQRILYDNHSSLCRASGRIFPLSSVEEQAVKGVRRKLDAAESHPSESCSFKRRRRDAQFHASPFERSFTAVSPICSPAGDGMELV | not soluble |
